Numbering of substitutions follows the chain as printed. In names and notes the source's numbering stands.
T1: human TRBC1 (hTRBC1), construct BIM0444 (human, UniProt P01850 1-129)
T1 chain: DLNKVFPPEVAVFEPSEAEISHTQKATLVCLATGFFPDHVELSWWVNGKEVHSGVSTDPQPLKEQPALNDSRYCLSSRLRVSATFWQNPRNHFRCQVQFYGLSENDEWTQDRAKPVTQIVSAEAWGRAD

T2: NKp30 on KHYG-1 NK cells (human, UniProt O14931 19-201)
T2 chain: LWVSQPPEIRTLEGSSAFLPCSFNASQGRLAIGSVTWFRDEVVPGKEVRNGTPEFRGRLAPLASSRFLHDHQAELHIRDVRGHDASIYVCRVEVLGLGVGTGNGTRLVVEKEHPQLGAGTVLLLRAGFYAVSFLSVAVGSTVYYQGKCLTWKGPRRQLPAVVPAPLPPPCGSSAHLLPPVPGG

T3: TRBC1 on TRBC1+ Jurkat cells (human, UniProt P01850 1-176)
T3 chain: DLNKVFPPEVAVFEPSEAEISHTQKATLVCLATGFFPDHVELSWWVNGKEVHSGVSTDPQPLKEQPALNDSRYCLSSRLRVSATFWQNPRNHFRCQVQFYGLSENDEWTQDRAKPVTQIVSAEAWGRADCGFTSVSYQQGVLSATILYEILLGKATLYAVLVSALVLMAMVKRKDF

B1: humanized JOVI.1 Fab BIM0460 (Fab, V domains shown)
VH: QVQLVQSGAEVKKPGSSVKVSCKASGYTFTGYVMHWVRQAPGQGLEWMGFINPYNDDIQSNERFRGRVTITSDKSTTTAYMELSSLRSEDTAVYYCARGAGYNFDGAYRFFDFWGQGTLVTVSS
VL: DVVMTQSPLSLPVTLGQPASISCRSSQRLVHSNGNTYLHWYQQRPGQSPRLLIYRVSNRFPGVPDRFSGSGSGTDFTLKISRVEAEDVGVYFCSQSTHVPYTFGGGTKVEIK
B2: JOVI.1 Fab BIM0446 (Fab, V domains shown)
VH: EVRLQQSGPDLIKPGASVKMSCKASGYTFTGYVMHWVKQRPGQGLEWIGFINPYNDDIQSNERFRGKATLTSDKSSTTAYMELSSLTSEDSAVYYCARGAGYNFDGAYRFFDFWGQGTTLTVSS
VL: B1 VL with T14S, Q17D, P18Q, Q42L, R44K, R50K, V88L, V90I, V109L
B3: BJM1079 (BJM0411 Parental) (antibody, V domains shown)
VH: EIQLLESGGGLVQPGGSLRLSCAVSGFSITTTGYHWNWVRQAPGKGLEWVGYIYSSGSTSYNPSLKSRFTISRDTSKNTFYLQMNSLRAEDTAVYYCARGDWHYFDYWGQGTMVTVSS
VL: DSVTTQSPLSLPVTLGQPASISCSGEKLSDKYVHWYQQRPGQSPRMLIYENDRRPSGVPDRFSGSNSGNDATLKISRVEAEDVGVYFCQFWDSTNSAVFGGGTKVEIK
B4: BJM1078 (BJM0407 Parental) (antibody, V domains shown)
VH: B3 VH
VL: SSETTQPPSVSVSPGQTASITCSGEKLSDKYVHWYQQKPGQSPVMVIYENDRRPSGIPERFSGSNSGNTATLTISGTQAMDEADYFCQFWDSTNSAVFGGGTQLTVL
B5: BJM1042 (anti-TRBC1/NKp30 bispecific antibody, N297A) (bispecific antibody)
heavy: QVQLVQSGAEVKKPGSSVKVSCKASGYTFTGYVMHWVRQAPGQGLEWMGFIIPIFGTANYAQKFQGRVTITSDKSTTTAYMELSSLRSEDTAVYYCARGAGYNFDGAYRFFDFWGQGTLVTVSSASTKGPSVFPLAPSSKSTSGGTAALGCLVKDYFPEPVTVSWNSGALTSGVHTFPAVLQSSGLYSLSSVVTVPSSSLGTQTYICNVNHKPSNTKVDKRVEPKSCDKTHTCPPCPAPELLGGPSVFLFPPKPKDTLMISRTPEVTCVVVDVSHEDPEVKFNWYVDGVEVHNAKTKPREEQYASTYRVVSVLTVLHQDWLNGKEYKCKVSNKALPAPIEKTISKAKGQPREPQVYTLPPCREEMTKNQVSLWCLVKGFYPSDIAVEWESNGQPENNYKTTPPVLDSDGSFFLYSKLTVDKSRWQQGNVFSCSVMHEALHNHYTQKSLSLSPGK
light: DVVMTQSPLSLPVTLGQPASISCRSSQRLVHSNGNTYLHWYQQRPGQSPRLLIYRVSNRFPGVPDRFSGSGSGTDFTLKISRVEAEDVGVYFCSQSTHVPYTFGGGTKVEIKRTVAAPSVFIFPPSDEQLKSGTASVVCLLNNFYPREAKVQWKVDNALQSGNSQESVTEQDSKDSTYSLSSTLTLSKADYEKHKVYACEVTHQGLSSPVTKSFNRGEC
scFv: EIQLLESGGGLVQPGGSLRLSCAVSGFSITTTGYHWNWVRQAPGKGLEWVGYIYSSGSTSYNPSLKSRFTISRDTSKNTFYLQMNSLRAEDTAVYYCARGDWHYFDYWGQGTMVTVSSGGGGSGGGGSGGGGSGGGGSDSVTTQSPLSLPVTLGQPASISCSGEKLSDKYVHWYQQRPGQSPRMLIYENDRRPSGVPDRFSGSNSGNDATLKISRVEAEDVGVYFCQFWDSTNSAVFGGGTKVEIKDKTHTCPPCPAPELLGGPSVFLFPPKPKDTLMISRTPEVTCVVVDVSHEDPEVKFNWYVDGVEVHNAKTKPREEQYASTYRVVSVLTVLHQDWLNGKEYKCKVSNKALPAPIEKTISKAKGQPREPQVCTLPPSREEMTKNQVSLSCAVKGFYPSDIAVEWESNGQPENNYKTTPPVLDSDGSFFLVSKLTVDKSRWQQGNVFSCSVMHEALHNHYTQKSLSLSPGK
B6: BJM1052 (anti-TRBC1/NKp30 bispecific antibody, N297A) (bispecific antibody)
heavy: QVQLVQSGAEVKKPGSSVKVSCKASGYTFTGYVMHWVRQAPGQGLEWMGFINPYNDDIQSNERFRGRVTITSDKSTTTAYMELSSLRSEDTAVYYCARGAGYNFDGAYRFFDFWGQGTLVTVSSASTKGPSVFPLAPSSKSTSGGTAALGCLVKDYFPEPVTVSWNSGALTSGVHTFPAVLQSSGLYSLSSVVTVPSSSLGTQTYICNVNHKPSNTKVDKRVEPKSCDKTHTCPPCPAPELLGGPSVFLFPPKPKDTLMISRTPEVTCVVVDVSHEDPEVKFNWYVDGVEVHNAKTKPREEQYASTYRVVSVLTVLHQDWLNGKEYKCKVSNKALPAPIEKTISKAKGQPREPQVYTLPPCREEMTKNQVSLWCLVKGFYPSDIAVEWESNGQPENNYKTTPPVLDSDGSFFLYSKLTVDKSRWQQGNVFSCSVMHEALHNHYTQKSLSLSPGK
light: B5 light
scFv: B5 scFv
B7: BJM1048 (antibody)
chain 1: not shown
chain 2: B5 light
chain 3: EIQLLESGGGLVQPGGSLRLSCAVSGFSITTTGYHWNWVRQAPGKGLEWVGYIYSSGSTSYNPSLKSRFTISRDTSKNTFYLQMNSLRAEDTAVYYCARGDWHYFDYWGQGTMVTVSSGGGGSGGGGSGGGGSGGGGSSSETTQPPSVSVSPGQTASITCSGEKLSDKYVHWYQQKPGQSPVMVIYENDRRPSGIPERFSGSNSGNTATLTISGTQAMDEADYFCQFWDSTNSAVFGGGTQLTVLDKTHTCPPCPAPELLGGPSVFLFPPKPKDTLMISRTPEVTCVVVDVSHEDPEVKFNWYVDGVEVHNAKTKPREEQYASTYRVVSVLTVLHQDWLNGKEYKCKVSNKALPAPIEKTISKAKGQPREPQVCTLPPSREEMTKNQVSLSCAVKGFYPSDIAVEWESNGQPENNYKTTPPVLDSDGSFFLVSKLTVDKSRWQQGNVFSCSVMHEALHNHYTQKSLSLSPGK
B8: BJM1038 (antibody)
chain 1: not shown
chain 2: B5 light
chain 3: B7 chain 3
B9: BJM0889 (single arm anti-TRBC1 antibody, N297A) (antibody, V domains shown)
VH: B1 VH
VL: B1 VL

Molecular target: T1, human TRBC1 (hTRBC1), construct BIM0444
Experiment: Octet BLI

Row | Binder | Kd
1 | B1 | 9 nM
2 | B2 | 4 nM

Molecular target: T2, NKp30 on KHYG-1 NK cells
Experiment: FACS cell binding

Row | Binder | EC50
3 | B3 | 5.36 nM
4 | B4 | 5.2 nM
5 | B5 | 9.48 nM
6 | B6 | 6.61 nM
7 | B7 | 7.66 nM
8 | B8 | 7.99 nM

Molecular target: T3, TRBC1 on TRBC1+ Jurkat cells
Experiment: FACS cell binding

Row | Binder | EC50
9 | B9 | 5.26 nM
10 | B5 | 61 nM
11 | B6 | 4.55 nM
12 | B7 | 8.29 nM
13 | B8 | 60.5 nM

From US20230357395A1 (published 2023)
